# Tested on: K4 kissing-loop RNA reporter
# Experiment: apparent KD of K4 kissing-loop reporter; higher = weaker reporter binding
# Conditions: Eterna round: R107
# Protocol: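 RNA-MaP round R107: designed RNA switches with theophylline, tryptophan, arginine or FMN aptamers are transcribed on-chip within common flanks. They are titrated with a labelled K4 kissing-loop RNA reporter in RNA-MaP buffer (100 mM Tris pH 7.5, 80 mM KCl, 4 mM MgCl2), without ligand or with the indicated ligand. Median apparent KD per design.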
# [1] = input ligand: theophylline 20 uM
# [2] = input ligand: tryptophan 2.4 mM
# 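Also: bound reporter read as fluorescence of individual clusters on recovered sequencing chips by microscopy, with normalized cluster intensities fitted with a binding model.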
Sequence,apparent KD of K4 kissing-loop reporter (input ligand: FMN 200 uM),apparent KD of K4 kissing-loop reporter (input ligand: arginine 13.2 mM),apparent KD of K4 kissing-loop reporter (input ligand: none),apparent KD of K4 kissing-loop reporter [1],apparent KD of K4 kissing-loop reporter [2]
AAAUAAAACUAUGAUACCAGUCAUCACAGAGUGAUGUUUUGUGGCAUUUUAAACUUGGCAGACCCUUGGCAGCAUGAUAUAGGAG [theeternabot_sameState_KL_Theo_B_8],486 nM,207 nM,318 nM,358 nM,261 nM
GGGUGGCAGACGGCCGCCACUCUUAGCAGCCAGUGAGUGAUGUUCGUGGCGGAGUGAUGUUCCUAGAGGACCGGGUUUGUUGUUC [Same State Tryptophan B GF 20],413 nM,259 nM,478 nM,412 nM,318 nM
AAACAUUGGUCUGAUACCAGCUGAUCGGAAACGAUCAUGCUGGAGUGAUGUUCCAGGAAAAGCCCUUGGCAGCAGACCGAUGAAA [MAT - Same State Theophlline B - Mod of Eli - D28],94.7 nM,103 nM,75.6 nM,184 nM,137 nM
AAACGCUUGAAUAACAAGCGAAUAAAUUCGCGAGGACCGGUACGGCCGCCACUCGCUAACUGCGAGUGAUGUUCGAUAAUAAAAU [Mat - Mod of OpenEnded 3 - D14],115 nM,91.8 nM,170 nM,176 nM,95 nM
AGAUAGGGCUGAAGGAGCGUCGGAAAAGAAAAGAUGAAAUCCAGUGAUGUUGGAUAAAUCCGACAGGUAGGUCGCAGUUUUAUGA [#01 K4 Arginine B Same State],126 nM,129 nM,133 nM,161 nM,120 nM
UGGAGUUGACGAAAAGUCAACUCCCGAGAAGGAGCGGACGAAAGUCCAGGUAGGUCGCUCGCUACCAGUGAUGUUGGUACUGAAA,125 nM,180 nM,126 nM,160 nM,105 nM
AGAGAUAUAUGAGGAUAUGAGUUAGUUAAUGAGUGAGUUUUAGUGUUGUUUGGUUAGUGAUGUUAUUUAGAAGGCGUGAGUGAUG [ttytmullin],98.8 nM,75.2 nM,74.9 nM,106 nM,75.9 nM
UUGUGCAGCAAUCGAGUGAUGUUCGACGAUACCAGCCUCGAUAGAGGCCCUUGGCAGCGUAUCAUCACAUGCCAAGAGCUGCACU [#SwitchBubble 5],530 nM,362 nM,428 nM,368 nM,419 nM
GCGAGUUUGCAAGGAUAUCGACCGUCGUACGACCAGUGAUGUUGGGAGUACUUUCAAAAUCGAUUUCGAGAAGGUGCUGGCAUCA [theeternabot_sameState_KL_FMN_B_12],271 nM,212 nM,250 nM,248 nM,234 nM
UGUGUUUACCUGACUCAGUGAUGUUGAGAAGGAGCGUGCAAAAGCACAGGUAGGUCGCUCAACCUAAAUUCAGGUGAGCACUAAA,270 nM,201 nM,255 nM,252 nM,264 nM
GAGGGCUCGGGAGGAUAUGAGUCUAGUGAUGUUAGGCGGUCCAUGCGCGUGGCGCGUUAUGCCCUUUUAGAAGGCCCGAGCCCGC [#2 Exclusion - FMN B Attempt #23 (HarryS)],109 nM,76.4 nM,90.5 nM,83.3 nM,93.8 nM
GGGAGAAGAGCGGCCGCCACUCAGACAGCAGCAGAAUAUAGUGAUGUUAUAUAGGAAAGGCGGAGGAGGACCGGGCUUAAGAGGG [#20 K4 Tryptophan B Same State],308 nM,303 nM,278 nM,362 nM,316 nM
ACCAUCAAAGAUGGCCAGGACUCCGCUGAUACCAGAGUGAAAACACUCCCUUGGCAGCAGGUGAGUGAUGUUCACGAGUCCUGGA [Omel KL Theo A SS B v6],986 nM,330 nM,476 nM,448 nM,836 nM
GCGAUCUGCAUCGAUACCAGCCCAGUGAUGUUGGGCUGCUCUCCAUGGGUGCCAGACACGGGCCCUUGGCAGCGAGGUAGAGCCC [Maonzaa],129 nM,118 nM,109 nM,112 nM,115 nM
UAGUAGUAGCGAGGAUAUGCAAUAGGCGAGUGAUGUUCGCCAGGCGGGCGUCGCAUAUAAGAAAGAGCAGAAGGCGCUAGGUAGA [SameState - FMN B / A],814 nM,303 nM,329 nM,397 nM,399 nM
GGAUCCACCAGUGAUGUUGGAGAAAACUCUAAGGAUAUGACGAAAGUCAGAAGGUGGUAGACUGGACAAAGUCCGGUGGGAUCCA [FmnA10 U30+G78],264 nM,229 nM,350 nM,406 nM,317 nM
UGAUAGGACAGAAGGAGCGGAAGCUAGUCAAAGACUAGCACGUUAAUAACAGGAGUGAUGUUCCAGGUAGGUCGCUGUCCUAUCU [ArgBX 24 #SwitchBubble #StaticStem],126 nM,118 nM,136 nM,118 nM,113 nM
GAGAGCUCUGGAGGAUAUGAGUCUAGUGAUGUUAGGCGGUCCAUGCGCGUGGCGCGUUAUGCCCUUUUAGAAGGCCAGAGCUCUC [#2 Exclusion - FMN B Attempt #19 (HarryS)],98.3 nM,69.3 nM,99.8 nM,113 nM,85 nM
AAGUCUCGUUAAUUCGAGGUUACGAUCGAUACCAGUAGCGAGAGGUACCCUUGGCAGCGAAGUGAGUGAUGUUCAUGAAAGAAGA [KL-XTheoA12],78.5 nM,119 nM,92.7 nM,131 nM,78 nM
AAUAAACAGUCGGCCGCCACUUCAAUAGACUUAUUAUUGAAUGGUGUAGUUCUUCAGUGAUGUUGAAGGACCGGGACUUUCGCGC [Isesator],157 nM,134 nM,145 nM,139 nM,158 nM
ACUCCGAGUGAUGUUAAGAGAUUCUCUGUUAAGGAUAUUUUGCGCAAAAGAAGGUAACCCGGUUUUCGUAAUCUGUUAAUGCGGA [theeternabot_exclusion_KL_FMN_A_38],572 nM,408 nM,581 nM,532 nM,503 nM

Sequence,apparent KD of K4 kissing-loop reporter (input ligand: FMN 200 uM),apparent KD of K4 kissing-loop reporter (input ligand: arginine 13.2 mM),apparent KD of K4 kissing-loop reporter (input ligand: none),apparent KD of K4 kissing-loop reporter [1],apparent KD of K4 kissing-loop reporter [2]
GGUGUUGUUUGUGCUGUUUUCCUCGUUUCUCGAGGACCGGUACGGCCGCCACUCGAGUGAUGUUUGGGUAGCGAUCCUUGUUAGU [Bdazzled - #6 Exc. Tryptophan A],335 nM,215 nM,313 nM,272 nM,383 nM
GGCGGCUGCGCGCAAGCGCAGCCGGCCGAUACCAGCGCGACGGCGCGCCCUUGGCAGCGGCGCCGAGUGAUGUUCGGCCUGCCGG [#2 Same State - Theophylline A Attempt #19 (HarryS)],433 nM,380 nM,738 nM,418 nM,416 nM
AUUAUAAAGUCGGCCGCCACUGAGAGUAGUGAUGUUACUCUUUUCCUUUAGAUAUUAUAUUUUAUCAGGACCGGGACAUCUGAUU [JR_Nu_ExcTryptoB_Sub024],147 nM,126 nM,148 nM,134 nM,130 nM
CCUAUCUCAUACGAUACCAGUCAACGAGUGAUGUUCGAAUAAAUAAAUUUGCCAAAUAAUGACCCUUGGCAGCGUAUGGGAUAGG [Ex Theophylline B K4 15],299 nM,313 nM,329 nM,302 nM,247 nM
UGGACGAAUAUCGAUAAGAUAUUCUGGGAUACCAGUGACGAAAGUCACCCUUGGCAGCUCAACUGCCAGUGAUGUUGGUAGUCCA [Astros-Elo-mod#3],238 nM,142 nM,218 nM,162 nM,165 nM
CGCGCGCGCGCGCGCGCGCGCGCGAAUGAUACCAGUAUAUAAGAAUACCCUUGGCAGCAUAAGAAAGAUAUAGUGAUGUUGUAUA [SSTheophA.B],285 nM,150 nM,269 nM,422 nM,231 nM
GUACGCUUCCGAGUGAUGUUCGGUAAUAGUUAGGAUAUCGUUUUUUCGAGAAGGAACUGAAUGAGGAAACUCGUUCGAAGUGUAC [FMN A 16],395 nM,266 nM,380 nM,424 nM,266 nM
CCUAUCUCAUACGAUACCAGUCAAUUAAAUUUUAUAAAUGCCAUCACCGAGUGAUGUUCGGACCCUUGGCAGCGUAUGGGAUAGG [Ex Theophylline B K4 2],222 nM,175 nM,198 nM,310 nM,187 nM
UGUACCGAUUCAGGAUAUGUCGUCGAAAGACGAAAUGGAGUGAUGUUCCUUAAACUGCGAAAGCAGACAGAAGGGAAUUGGUACU [FmnBS 29 U9+A77],146 nM,285 nM,300 nM,318 nM,284 nM
AACGGCCAGUCGGCCGCCACUCAAAGCAGUGAUGUUGCUAACUUUCUAAAAGAGUGAUGUUCUUAGAGGACCGGGACUAAUGUAA [Exclusion Tryptophan B GF 2],115 nM,147 nM,125 nM,143 nM,102 nM
ACACUAUCGUCAUAGACGGUAGUGAACACACAGGAUAUGAGUGAUGUUAGAAGGGUGUAAGACUGUAUCGAAUAGAUACAGUCAA [FmnA 7 #K4BetweenAptamer #OpenEnded],400 nM,142 nM,204 nM,192 nM,190 nM
GCCGUAGAUUGAAGGAGCGAGGCUACUUAAAGACCGAGUGAUGUUCGGGAACGUGAAACUCCUCAGGUAGGUCGCAAUCUACGGC,284 nM,235 nM,280 nM,227 nM,267 nM
AGUAAUGAGUGAUGUUCAAAUAGUAAGGAUACCAGUAAUUCAAAAUGCCCUUGGCAGCUUAACGCUACCAAUAGAUAAAUAAUGG [Theophilline A V2 (+2A)],134 nM,166 nM,144 nM,172 nM,96.8 nM
UAUCGAGUGAUGUUCGAUGUAGUUCAUUCAGAGGAUAUAGGAUGGGCUAGAAGGCUGAAAAGUGCUUCGAGUGAUGUUCGAAGAU [Exclusion FMN A GF 6],64.6 nM,40.9 nM,53.7 nM,40.9 nM,44.7 nM
GAAUUAUGUAGAAGGAGCGUUAGAAGGUAUAGGUGUGAGUGAUGUUCGGAUUUGUUAAUUUGACAGGUAGGUCGCUACAGAAGGA [KL-SSArg B17 #analogue],435 nM,267 nM,242 nM,132 nM,106 nM
GGGCUGGUGCUAGGAUAUGCGAUGAAUGCUCAGAAAACCUUGAGUCCGCAGUGAUGUUGCGGCACCGCAGAAGGAGCUAAGGCUC [Reorinraor],129 nM,138 nM,111 nM,171 nM,127 nM
UAGAGAUCGAGAAGGAGCGAGAAAGCUAGUACAUAUGUACUAGCAAAGCAGUGAUGUUGCACUCAGGUAGGUCGCUCGAUCUCAU [AK1.1 SS Arginine B],337 nM,267 nM,366 nM,432 nM,305 nM
GUUACUUCAGAAGGAUAUUAGUAAACAACACGGUAGUGAUGUUACCGUUAUCAAGCCCGGCUUCACUAAGAAGGUCUCCACCGCG [theeternabot_sameState_KL_FMN_B_23],52 nM,67.9 nM,52.9 nM,70 nM,54.1 nM
AGAACUGUCUUGGAUACCAGUGAUGUUGGUAUCUGUGUGUGAGUGCAAAGCGUCCCACAUUGCCCUUGGCAGCUAAGACUGUUCA [Omei KL Theo B Exc A v1],147 nM,129 nM,137 nM,182 nM,132 nM
CUCGAGUGAUGUUCGAUUAUUUAUACAGAUACCAGUGAAUUUUAACACCCUUGGCAGCUGGUUGUAUCUUUGUAAUUUACACAAG [JR_ExcTheophyA_Sub005],120 nM,168 nM,113 nM,151 nM,93.6 nM
AAAUUUAUAUUAGAUACCAGCAAAUUGAAAGUUUAUUAUGACAAGAGUGAUGUUCUUGUAUGCCCUUGGCAGCUGGUAUGGGUUU [KL-XTheo-B26],112 nM,106 nM,120 nM,111 nM,108 nM
